# Values quoted from earlier work, collected in publication PMC4616163, “Inverse relationship between chitobiase and transglycosylation activities of chitinase-D from Serratia proteamaculans revealed by mutational and biophysical analyses” (Scientific Reports, 2015).
# Design: method as in PMID 11160110, PMID 18368288
# Details: other chitinases, literature
molecule,measurement,value
"SmChiA: mesophilic chitinase (protein, UniProt P07254 24-563, looked up) Chitinase A: AAPGKPTIAWGNTKFAIVEVDQAATAYNNLVKVKNAADVSVSWNLWNGDAGTTAKILLNGKEAWSGPSTGSSGTANFKVNKGGRYQMQVALCNADGCTASDATEIVVADTDGSHLAPLKEPLLEKNKPYKQNSGKVVGSYFVEWGVYGRNFTVDKIPAQNLTHLLYGFIPICGGNGINDSLKEIEGSFQALQRSCQGREDFKVSIHDPFAALQKAQKGVTAWDDPYKGNFGQLMALKQAHPDLKILPSIGGWTLSDPFFFMGDKVKRDRFVGSVKEFLQTWKFFDGVDIDWEFPGGKGANPNLGSPQDGETYVLLMKELRAMLDQLSAETGRKYELTSAISAGKDKIDKVAYNVAQNSMDHIFLMSYDFYGPFDLKNLGHQTALNAPAWKPDTAYTTVNGVNALLAQGVKPGKVVVGTAMYGRGWTGVNGYQNNIPFTGTATGPVKGTWKNGIVDYRQIAGQFMSGEWQYTYDATAEAPYVFKPSTGDLITFDDARSVQAKGKYVLDKQLGGLFSWEIDADNGDILNSMNASLGNSAGVQ",Tm,64.2 °C
